This is an account of results in patent publication US20030087827A1.

The test concerns the target proprotein convertase PC2. The experiment in a line: enzyme inhibition, pERTKR-MCA hydrolysis (fluorescence), competitive Ki.

Sequence of proprotein convertase PC2 (P21661 109-637): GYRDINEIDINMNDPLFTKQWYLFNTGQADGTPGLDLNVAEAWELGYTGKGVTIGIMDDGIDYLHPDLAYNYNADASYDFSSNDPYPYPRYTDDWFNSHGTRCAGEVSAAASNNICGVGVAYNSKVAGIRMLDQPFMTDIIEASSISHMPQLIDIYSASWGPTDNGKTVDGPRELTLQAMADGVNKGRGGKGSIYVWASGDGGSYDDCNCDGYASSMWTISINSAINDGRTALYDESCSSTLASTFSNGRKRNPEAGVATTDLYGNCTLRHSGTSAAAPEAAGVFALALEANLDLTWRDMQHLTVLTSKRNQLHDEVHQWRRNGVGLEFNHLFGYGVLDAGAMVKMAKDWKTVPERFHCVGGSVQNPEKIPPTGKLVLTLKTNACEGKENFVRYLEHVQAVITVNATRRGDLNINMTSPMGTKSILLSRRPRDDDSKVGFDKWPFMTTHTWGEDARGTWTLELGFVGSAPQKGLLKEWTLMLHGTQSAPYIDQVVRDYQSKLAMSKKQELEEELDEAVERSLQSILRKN

With Ac-MRKRRR-NH2 (peptide), the Ki (as a rule, a measure of affinity in units of concentration, obtained from inhibition or displacement) came out at 1500 µM.
